# Test results reported in US20180273595A1.
# Tests used:
# [1] = molecular target: recombinant His-tagged full-length ERG (UniProt P11308); assay: Kd table of synthetic peptides on ERG; assay not given
# [2] = molecular target: recombinant His-tagged full-length ERG (UniProt P11308); assay: OctetRED; Kd table of synthetic peptides on ERG
# recombinant His-tagged full-length ERG, sequence (P11308 whole entry): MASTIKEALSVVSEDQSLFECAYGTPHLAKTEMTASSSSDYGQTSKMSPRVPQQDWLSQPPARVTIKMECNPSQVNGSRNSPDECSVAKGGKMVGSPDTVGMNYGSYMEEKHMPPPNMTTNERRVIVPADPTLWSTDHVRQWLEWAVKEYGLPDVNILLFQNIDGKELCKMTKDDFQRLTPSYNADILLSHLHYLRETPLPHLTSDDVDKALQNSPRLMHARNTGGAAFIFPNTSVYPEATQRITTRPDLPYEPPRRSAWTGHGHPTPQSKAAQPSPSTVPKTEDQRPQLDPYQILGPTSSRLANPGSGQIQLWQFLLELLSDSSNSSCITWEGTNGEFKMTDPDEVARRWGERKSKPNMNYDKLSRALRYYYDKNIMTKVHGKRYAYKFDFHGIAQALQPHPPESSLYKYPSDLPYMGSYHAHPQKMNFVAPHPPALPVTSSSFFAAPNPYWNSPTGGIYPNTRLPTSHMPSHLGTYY
Substance,Kd [1] [µM],Kd [2] [µM]
3-mer PYL capped at both termini (Ac-PYL-NH2) (peptide),7.5,
7-mer LPPYLFT capped at the C-terminus only (LPPYLFT-NH2) (peptide),,> 100
EIP1 capped at both termini (Ac-LPPYLFT-NH2) (peptide),> 100,> 100
3-mer PYL capped at the N-terminus only (Ac-PYL) (peptide),8.7,
